Laboratory results reported in the supplement of paper PMC10567573.

Assay: protein stability index of a GFP-peptide fusion (GPS, HEK-293T) (PSI 1-6); higher = more stable
Settings: c terminus: a fixed tail appended
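Further: lentivirally expressed fusions sorted by FACS into six bins by GFP to DsRed ratio, PSI derived from sequencing read proportions per bin multiplied by bin number.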

## LLQRELAQEDSLNKLALQYGCKVA [LYSMD4 WT]
parent: IOH63099_13
  protein stability index: 1.92

## LTSDLYAPMVAGALARLGTVTVIS [SLC25A39 WT]
parent: IOH63154_27
  protein stability index: 2.94

## SLGKQKVFIIRKSLLDELMEVQHF [SOAT2 WT]
parent: IOH63195_17
  protein stability index: 2.25

## GRKKYDIDPRNGIPKLTPGDNPYM
parent: IOH63376_32
  protein stability index: 3.52

## YPEQSKGFHKAGSMLPPVNFSIVP
parent: IOH63376_36
  protein stability index: 1.94

## STTALGDKQRKANESKGTRESWDS [TCEB3B WT]
parent: IOH63382_68
  protein stability index: 3.77

## FGSRSLYSLGGVRSLNVASGSGKS
parent: IOH63384_8
  protein stability index: 1.86

## ELRNVQDVVEDYKKRYEEEINKRT
parent: IOH63384_35
  protein stability index: 3.49

## VTYMNMTAYNKGRLQSSFWIVDKQ
parent: IOH63495_20
  protein stability index: 2.36

## WIVDKQHVYIGSAGLDWQSLGQMK
parent: IOH63495_23
  protein stability index: 1.79

## KRTYWPDLDAKIREALVLRSVRVR
parent: IOH63495_45
  protein stability index: 2.02

## QKELQDVGQSLRIKEQEVCKLQEQ [SASS6 WT]
parent: IOH63533_44
  protein stability index: 5.02

## CSWKGATKQRIQDQKVPYIFRDNQ [CHIT1 WT]
parent: IOH63601_52
  protein stability index: 2.59

## KKPPEESTCFERPCFKWYTSPWSE [ADAMTSL2 WT]
parent: IOH80445_141
  protein stability index: 2.4

## SKPKTFQAYLDDCHRRYSCAHCRA [YPEL3 WT]
parent: IOH80494_8
  protein stability index: 1.87

## EILGCPLPDPNNYYHRRNEMTTTD
parent: IOH80553_49
  protein stability index: 3.32

## TASTKNCMVGYDMGATRCDFTLSK
parent: IOH80553_117
  protein stability index: 2.15

## SVIEPVQESSFRSRKIAVEDENDL
parent: IOH80698_41
  protein stability index: 5.18

## NSISSDKEATVPCTEILTEKKDTI
parent: IOH80698_58
  protein stability index: 5.37

## DMVSNIELPTRIHEEVYFEPSSSK
parent: IOH80698_88
  protein stability index: 3.89

## GKQAPRKKAQGKTQQNRKLTDFYP
parent: IOH80936_28
  protein stability index: 2.67

## KKAQGKTQQNRKLTDFYPVRRSSR
parent: IOH80936_29
  protein stability index: 2.19

## FVVEYHGDLIEITDAKKREALYAQ
parent: IOH80936_41
  protein stability index: 2.1

## RNALENIRKEMKLLEQAGSLKGSL [CRYL1 WT]
parent: IOH81349_8
  protein stability index: 3.44

## LLQRELMVPGTRHSAVLRDLRSGT
parent: IOH81617_23
  protein stability index: 2.54

## FSEIRETSAKVNWMPPPSRADSFK
parent: IOH81617_33
  protein stability index: 3.45

## TLDGYGIHPKSIDLDNYFTARRLL [NFE2L1 WT]
parent: IOH81649_11
  protein stability index: 1.93

## YVEVKEGKTWKQICDKHWTAKNSR
parent: IOH81790_35
  protein stability index: 2.24

## HISSCKLGPQVSLDPMKNVTCENG
parent: IOH81790_46
  protein stability index: 3.95

## FSPDGPSRFRKAYKPEQPLVRLRG
parent: IOH81790_52
  protein stability index: 1.81

## RLLRFSSQIHNNGQSDFRPKNGRH
parent: IOH81790_100
  protein stability index: 2.72

## DCAGSPQKPLCASDGRTFLSRCEF
parent: IOH81799_8
  protein stability index: 2.54

## QKPLCASDGRTFLSRCEFQRAKCK
parent: IOH81799_9
  protein stability index: 2.71

## PALETQPQGDEEDIASRYPTLWTE
parent: IOH81799_32
  protein stability index: 4.26

## HVDPEEPWSPCSARFITDFLDNGY
parent: IOH81847_67
  protein stability index: 1.84

## SFRKFRYGYNNVVTIPAGATHILV
parent: IOH81847_116
  protein stability index: 2.6

## FTETNNHWPQGPTGPPGPPGPMGP [EMID1 WT]
parent: IOH81855_48
  protein stability index: 2.31

## FIVDILQFLDIGPDVTRVGLLQYG
parent: IOH81883_14
  protein stability index: 2.92

## FSLKTFKRKSEVERAVKRMRHLST
parent: IOH81883_19
  protein stability index: 2.06

## VNVPGSFVCQCYSGYALAEDGKRC
parent: IOH81883_50
  protein stability index: 1.99

## TDDSYSCHCLKGFTLNPDKKTCRR
parent: IOH81883_64
  protein stability index: 2.25

## GSLPWQGLKADTLKERYQKIGDTK [CSNK1G1 WT]
parent: IOH82133_42
  protein stability index: 4.1

## NKWTVQYNVSPLSWNVAVKFLMAR
parent: IOH82149_6
  protein stability index: 2.09

## LKGAFPARLKKVLIVGAPIWFRVP
parent: IOH82149_30
  protein stability index: 2.96

## TQHLPRECLPENLGGYVKIDLATW
parent: IOH82149_38
  protein stability index: 1.88

## ILFSLPPALDWDSVHVPGPHAMTI
parent: IOH82149_45
  protein stability index: 2.54

## IDFLRVVRNQQSLAVSNMGARSKG
parent: IOH82149_81
  protein stability index: 2.4

## PGVHRRYSALREESAKDWETSPLP
parent: IOH82170_4
  protein stability index: 4.19

## VMTLPSDLRKHRRKLLSPVSREEN
parent: IOH82170_31
  protein stability index: 3.53

## YAGNLHESGVHGALLALDENFDHN
parent: IOH82170_95
  protein stability index: 2.51

## MVHVARLLLLLLTFFLRTDAETPP
parent: IOH82190_1
  protein stability index: 2.92

## FICQATGDPRPKIVWNKKGKKVSN
parent: IOH82190_8
  protein stability index: 2.13

## ITWFKDFLPVDTSNNNGRIKQLRS
parent: IOH82190_27
  protein stability index: 1.83
